Where “and” joins values, the source holds several entries; their conditions need not be identical. Identical values can stand only once.
Legend:
human CCR8 [1] = target: T1, human CCR8 (human, UniProt P51685 1-355); assay: cell-based or functional assay
human CCR8 [2] = target: T1, human CCR8; assay: flow cytometry, inhibition of hCCL1-AF647 binding to hCCR8 CHO cells
Description: The hCCR8 transfected CHO cell line was dispatched at a density of 1·10⁵ per well in a 96-well plate. Cells were incubated for 30 min at 4° C. with or without anti-CCR8 mAb tested at 10 μg/mL then diluted at 1/3. Unbound antibodies were washed away with PBS (Gibco, Villebon-sur-Yvette, France) supplemented by 2% Fetal Bovine Serum (Invitrogen by Thermofisher Scientific, Illkirch-Graffenstaden, France) and 2 mM EDTA. […] After washing unbound ligands, CCL1 bound detection is quantified on a MacsQuant16 (Miltenyi, Gladbach, Germany) (R1 channel, 5 000 events per acquisition).
For IC₅₀ determination, a concentration response curve is performed using 8 concentrations of mAb. Curves are fitted and IC₅₀ of CCL1 binding blocking activity is calculated using the sigmoidal dose-response (variable slope) model on GraphPad Prism 9 (GraphPad Software, San Diego, CA, USA).

hCCR8 SNAP-tag [3] = target: T2, hCCR8 SNAP-tag (human, UniProt P51685 1-355, SNAP-tag labelled with Lumi4-Terbium); assay: HTRF Tag-lite, inhibition of hCCL1-AF647 binding to SNAP-tag hCCR8 on HEK-293
T2 construct: also called human CCR8 engineered with a SNAP-tag at the N-terminus; not shown: SNAP-tag at the N-terminus
Description: The inhibition of CCL1 binding to hCCR8 was evaluated with the Tag-Lite® technology from Cisbio (Revvity). Human CCR8 is engineered with a SNAP-tag at the N-terminus of the GPCR. hCCR8 SNAP-tag is transiently transfected on HEK-293 cell line using FuGene® (Promega, Madison, WI, USA). 48 hours after transfection, cells are labeled with the substrate Lumi4-Terbium® (Cisbio, Codolet, France) which covalently reacts with the SNAP-tag, for 1 h at 37° C. […] The Kd is previously obtained in a saturation binding assay on the same cells. […] The plate is next incubated at 21° C. for 2 h. Detection of HTRF signal is performed on the multiplate reader EnVision (PerkinElmer, Waltham, MA, USA). The HTRF (665/620) ratio is calculated by EnVision software, the data exported are considered as the total binding. The specific binding is calculated then by subtracting the non-specific signal from the total binding. The Ki and IC₅₀are calculated using the “One site—Fit Ki” and “One site—FitlogIC50” from GraphPad Prism 9 (Graphpad Software, San Diego, CA, USA), respectively.

human CCR8 [4] = target: T1, human CCR8; assay: flow cytometry, hCCR8 transfected CHOK1 cells
Description: The same staining protocol was applied on human CCR8 transfected CHO cell line versus wild type CHO cell line, cutaneous T cell lymphoma HUT78 cell line and human activated T cell model.
Briefly, 1·10⁵ cells per well in a 96 well plate were incubated with a dilution of unconjugated anti-CCR8 mAb at 10 μg/mL then diluted at 1/3.33, 4 dilution points (during 30 min at 4° C.). In human activated T cells model, prior to mAb incubation, cells were first incubated with 200 nM of hCCL1 (R&D Systems, Minneapolis, MN, USA) or buffer PBS (Invitrogen by Thermofisher Scientific, Illkirch-Graffenstaden, France) supplemented by 2% Fetal Bovine Serum (Invitrogen by Thermofisher Scientific, Illkirch-Graffenstaden, France) and 2 mM EDTA (Invitrogen by Thermofisher Scientific, Illkirch-Graffenstaden, France) during 1 hour at 4° C. To determine EC50 value, 8 concentrations of anti-CCR8 mAb were tested. Unbound antibodies were washed away with PBS (Invitrogen by Thermofisher Scientific, Illkirch-Graffenstaden, France) supplemented by 2% Fetal Bovine Serum (Invitrogen by Thermofisher Scientific, Illkirch-Graffenstaden, France) and 2 mM EDTA (Invitrogen by Thermofisher Scientific, Illkirch-Graffenstaden, France). Subsequently, cells are centrifuged (5 min at 400 g) and bound antibody is detected with F(ab′)₂-Goat anti-Mouse IgG (H+L) Cross-Adsorbed Secondary Antibody, Alexa Fluor 488 (dilution 1/500) (Invitrogen by Thermofisher Scientific, Illkirch-Graffenstaden, France) or with F(ab′)₂-Goat anti-Human IgG Fc Secondary Antibody, PE (Invitrogen by Thermofisher Scientific, Illkirch-Graffenstaden, France) (dilution 1/1000) at 4° C. for 30 min. Detection reagent is washed away and cells are centrifuged (5 min at 400 g) and resuspended in 30 μL PBS. Bound detection antibody is quantified on a MacsQuant16 (Miltenyi, Gladbach, Germany) (B1 or B2 channel, 5000 events per acquisition). During the experiment, the respective isotype mAb controls (mouse IgG1, mouse IgG2a, mouse IgG2b, mouse IgG3 or human IgG1) (Biolegend, Amsterdam, The Netherlands) are included to exclude any unspecific binding events.

hCCR8 SNAP-tag [5] = target: T2, hCCR8 SNAP-tag; assay: cell-based or functional assay
human CCR8 [6] = target: T1, human CCR8; assay: cell-based or functional assay; remark: listed apart in the source
[7] = target: pm8, modified CCR8 related peptide (human, sulfated tyrosines at Y15, Y16 and Y17); assay: ELISA on coated CCR8 peptide (500 ng/mL), OD [cont.]
Description: (§1) The specific binding properties of antibodies were evaluated by ELISA with coated CCR8 related peptides (500 ng/mL) in carbonate/bicarbonate buffer. Different peptides were used as described in Table 1 (see Example 1). Each anti-CCR8 mAb was tested at 1 μg/mL then diluted at 1/10. After an incubation at room temperature during 90 min, unbound mAbs were removed by washings. […] After washings, 3,3′,5,5′-tetramethylbenzidine (TMB) (Interchim, Montlugon, France) was added for 15 min. Then the optical density (OD) was determined by using a multiplate reader (Tecan, Lyon, France) and correlated with mAb reactivity on the panel of coated peptides.

[8] = target: pm3, modified CCR8 related peptide (human, sulfated tyrosine at Y17); assay: as above
Description: as §1

[9] = target: T3, pwt1, unmodified CCR8 related peptide (human, none (non-sulfated Y15, Y16, Y17)); assay: as above
T3 construct: First 34 amino acids of human CCR8, synthetic; also called unmodified peptide
Description: as §1

[10] = target: pm6, modified CCR8 related peptide (human, sulfated tyrosines at Y16 and Y17); assay: as above
Description: as §1

[11] = target: pm1, modified CCR8 related peptide (human, sulfated tyrosine at Y15); assay: as above
Description: as §1

[12] = target: pm4, modified CCR8 related peptide (human, sulfated tyrosines at Y15 and Y16); assay: as above
Description: as §1

[13] = target: pm5, modified CCR8 related peptide (human, sulfated tyrosines at Y15 and Y17); assay: as above
Description: as §1

[14] = target: pm2, modified CCR8 related peptide (human, sulfated tyrosine at Y16); assay: as above
Description: as §1

human CCR8 [15] = target: T1, human CCR8; assay: cell-based or functional assay; remark: listed apart in the source

Chain of pm8, modified CCR8 related peptide (human, sulfated tyrosines at Y15, Y16 and Y17) (peptide, as listed by the source): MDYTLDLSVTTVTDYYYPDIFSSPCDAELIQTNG
Chain of pm2, modified CCR8 related peptide (human, sulfated tyrosine at Y16) (peptide, as listed by the source): as above
Chain of pm5, modified CCR8 related peptide (human, sulfated tyrosines at Y15 and Y17) (peptide, as listed by the source): as above
Chain of pm1, modified CCR8 related peptide (human, sulfated tyrosine at Y15) (peptide, as listed by the source): as above
Chain of pm4, modified CCR8 related peptide (human, sulfated tyrosines at Y15 and Y16) (peptide, as listed by the source): as above
Chain of pm6, modified CCR8 related peptide (human, sulfated tyrosines at Y16 and Y17) (peptide, as listed by the source): as above
Chain of pm3, modified CCR8 related peptide (human, sulfated tyrosine at Y17) (peptide, as listed by the source): as above
T3 sequence (peptide, as listed by the source): as above

Binder	IC50, CCL1 induced hCCR8 Gi2 signaling (BRET, HEK-293) (human CCR8 [1])	IC50 (human CCR8 [2])	% positive cells (human CCR8 [4]) [%]	% of internalization at 1 µg/ml (CCL1 at 300 nM = 100%), HTRF (hCCR8 SNAP-tag [5]) [%]	% of internalization at 10 µg/ml (CCL1 at 300 nM = 100%), HTRF (hCCR8 SNAP-tag [5]) [%]	IC50, CCL1 induced hCCR8 Gi2 signaling (BRET) at pH 6.5 (human CCR8 [6])	IC50, CCL1 induced hCCR8 Gi2 signaling (BRET) at pH 7.4 (human CCR8 [6])	binding result [7]	binding result [8]	binding result [9]	binding result [10]	binding result [11]	binding result [12]	binding result [13]	binding result [14]	MFI fold change to isotype ctrl (human CCR8 [4]) [fold]	also measured
Ref #1 (TPP-21360 of WO 2021/260210) (antibody, human IgG1, V domains shown, Benchmark; variable regions cloned into vectors encoding heavy and light chains of human IgG1, produced in CHO) VH: EVQLLESGGGLVQPGGSLRLSCAASGFTFSSYGMHWVRQAPGKGLEWVSAINWNGGSTGYADSVKGRFTISRDNSKNTLYLQMNSLRAEDTAVYYCARGHHSGYDGRFFDYWGQGTLVTVSS VL: QSVLTQPPSVSGAPGQRVTISCTGSSSNIGAGYNVHWYQQLPGTAPKLLIYTNNRRPSGVPDRFSGSKSGTSASLAISGLRSEDEADYYCAAWDASLSGWVFGGGTKLTVL	0.101 µg/mL and 0.675 nM	0.65 mg/L	75.1	126	111	–	–	–	–	–	–	–	–	–	–	–	IC50 (hCCR8 SNAP-tag [3]): 0.45 mg/L; Ki (hCCR8 SNAP-tag [3]): 0.23 mg/L
Ref #3 (Anti-CCR8-1 of US 2021/0238292 A1) (antibody, human IgG1, V domains shown) VH: QVQLVQSGAEVKKPGASVKVSCKASGYTFTSYYMHWVRQAPGQGLEWMGIINPSGGSTSYAQKFQGRVTMTRDTSTSTVYMELSSLRSEDTAVYYCARAVRNRFRFDYWGQGTLVTVSS VL: QSALTQPASVSGSPGQSITISCTGTSSDVGSYNLVSWYQQHPGKAPKLMIYEVSKRPSGVSNRFSGSKSGNTASLTISGLQAEDEADYYCSSYAGSSTFVVFGGGTKLTVL	–	–	–	100	90	–	–	–	–	–	–	–	–	–	–	–	–

The next lines start with results.

IC50, CCL1 induced hCCR8 Gi2 signaling (BRET, HEK-293) (human CCR8 [1])	IC50 (human CCR8 [2])	% positive cells (human CCR8 [4]) [%]	% of internalization at 1 µg/ml (CCL1 at 300 nM = 100%), HTRF (hCCR8 SNAP-tag [5]) [%]	% of internalization at 10 µg/ml (CCL1 at 300 nM = 100%), HTRF (hCCR8 SNAP-tag [5]) [%]	IC50, CCL1 induced hCCR8 Gi2 signaling (BRET) at pH 6.5 (human CCR8 [6])	IC50, CCL1 induced hCCR8 Gi2 signaling (BRET) at pH 7.4 (human CCR8 [6])	binding result [7]	binding result [8]	binding result [9]	binding result [10]	binding result [11]	binding result [12]	binding result [13]	binding result [14]	MFI fold change to isotype ctrl (human CCR8 [4]) [fold]	Binder	also measured
0.049 µg/mL and 0.328 nM	1.3 µg/mL and 8.71 nM	81.1	–	–	0.044 µg/ml and 0.292 nM	0.061 µg/ml and 0.405 nM	binds	binds	binds	binds	binds	binds	binds	binds	10.7	anti-CCR8 mAb 2-3 (antibody, V domains shown) VH: EVQLQQSGPELLKPGTSVKISCTTSGYTFSDYTLHWVKQSHGKSLEWIGGITPKNGDTRYDPRFKDKATLTIDKSSSAAYMELRSLTSEDSAVYYCARVARFYGVSPYAMDYWGQGASVTVSS VL: DVVMTQTPLSLPVSLGDQASISCRCTQSLLHSNGDTYLHWYLQKPGQSPKLLIYKVSNRFSGVPDRFSGSGSGTDFTLEITRVEAEDLGVYFCSQTTHVPYTFGGGTKLEIK	hCCL1 (100 nM) residual response in %, Protocol #2, mAb 0.08 µg/mL (0.53 nM) (human CCR8 [15]): 79%; hCCL1 (100 nM) residual response in %, Protocol #2, mAb 0.4 µg/mL (2.67 nM) (human CCR8 [15]): 38%; hCCL1 (100 nM) residual response in %, Protocol #2, mAb 10 µg/mL (66.7 nM) (human CCR8 [15]): 17%; hCCL1 (100 nM) residual response in %, Protocol #3, mAb 0.05 µg/mL (0.33 nM) (human CCR8 [15]): 102%; hCCL1 (100 nM) residual response in %, Protocol #3, mAb 0.5 µg/mL (3.33 nM) (human CCR8 [15]): 64%; hCCL1 (100 nM) residual response in %, Protocol #3, mAb 5 µg/mL (33.3 nM) (human CCR8 [15]): 47%
–	–	–	95	103	–	–	–	–	–	–	–	–	–	–	–	Ref #4 (137-H3L2 (LM-108) of WO 2022/078277) (antibody, human IgG1, V domains shown) VH: EVQLVESGGGLVQPGGSLKLSCAASGFTFNTYAMNWVRQASGKGLEWVARIRSKANNYATYYADSVKDRFTISRDDSKNTLYLQMNNLKTEDTAVYYCVRDRSRGEDYAMDYWGQGTLVTVSS VL: DIVMTQSPLSLPVTPGEPASISCRSSKSLLHSNANTYLYWFLQKPGQSPQLLIYRMSNLASGVPDRFSGSGSGTAFTLKISRVEAEDVGVYYCMQHLEYPFTFGQGTKLEIK	–
0.712 µg/mL and 4.75 nM	2.22 µg/mL and 14.8 nM	78.9	–	–	0.578 µg/ml and 3.85 nM	0.812 µg/ml and 5.41 nM	binds	binds	binds	binds	binds	binds	binds	binds	6.36	anti-CCR8 mAb 2-8 (antibody, V domains shown) VH: QVQLKESGPGLVAPSQSLSITCTVSGFSLTDYGVSWIRQPPGKGPEWLGVIWGGGNTYYNSVLKSRLSISNDNSKSQVFLRMNSLQTADTAIYYCARPRRDYYALDYWGQGTSVTVAS VL: DVVMTQTPLSLPVSLGDQASISCRSSQSLVYTNGNTFLHWYLQKPGQSPKLLIYKVSNRFSGVPDRFSGSGSGTDFTLKISRVEAEDLGVYFCSQSTHVPPTFGGGTKLEIK	–

Source: patent publication US20260167731A1 (DOMAIN THERAPEUTICS, published 2026)
